Data taken from patent publication US20100184648A1 (published 2010).

Key:
Test in all cases: receptor inhibition assay at 10 µM Compound A, ratio relative to a control compound
Muscarine M1 receptor = biological target: Muscarine M1 receptor
Protocol: (§1) The inhibitory action of Compound A against various receptors listed in Table 2 was examined to evaluate the specificity of Compound A. The activities of the receptors were measured by using an appropriate assay system according to the property of the respective receptors. Further, the evaluation results of Compound A were calculated as an inhibition ratio at a final concentration of 10 μM. Here, the inhibition ratio was calculated based on a value of a control compound in each assay. As is apparent from the results shown in Table 2, it was confirmed that Compound A is specific to an MCH receptor. Incidentally, examination was carried out with regard to 173 kinds of physiologically functional proteins including the receptors shown in Table 2, however, the affinity thereof could not be found other than the MCH receptors, and only major receptors are shown in Table 2.

Neuropeptide Y1 receptor = biological target: Neuropeptide Y1 receptor
Protocol: as §1

Glutamate AMPA receptor = biological target: Glutamate AMPA receptor
Protocol: as §1

Histamine H3 receptor = biological target: Histamine H3 receptor
Protocol: as §1

B1: Compound A (peptide)
peptide: RCMXRVYXC
modifications: N-terminal acetyl on Arg 1 (printed Arg-C(=O)CH3); C-terminal amide on Cys 9 (printed H2N-Cys); X at positions 4 and 8 = Ava (5-aminovaleric acid); the two Cys residues (2 and 9) are bound to each other through a -SS- bond
notes: Synthetic cyclic peptide with two non-natural Ava residues; The direction of the printed formula is interpreted; also called MCH1R antagonist; H2N-Cys-Ava-Tyr-Val-Arg-Ava-Met-Cys-Arg-C(=O)CH3
Inhibition ratio (Muscarine M1 receptor): 0 | Inhibition ratio (Neuropeptide Y1 receptor): 17 | Inhibition ratio (Glutamate AMPA receptor): 8 | Inhibition ratio (Histamine H3 receptor): -6
